T1: recombinant human ORF1p (LINE-1 open reading frame 1 protein, L1RP) (human, UniProt Q9UN81 1-338)
T1 construct: Expressed in E. coli, tag cleaved, monodisperse homotrimer; Immobilized on the CM5 chip in SPR; also called trimeric ORF1p
T1 sequence: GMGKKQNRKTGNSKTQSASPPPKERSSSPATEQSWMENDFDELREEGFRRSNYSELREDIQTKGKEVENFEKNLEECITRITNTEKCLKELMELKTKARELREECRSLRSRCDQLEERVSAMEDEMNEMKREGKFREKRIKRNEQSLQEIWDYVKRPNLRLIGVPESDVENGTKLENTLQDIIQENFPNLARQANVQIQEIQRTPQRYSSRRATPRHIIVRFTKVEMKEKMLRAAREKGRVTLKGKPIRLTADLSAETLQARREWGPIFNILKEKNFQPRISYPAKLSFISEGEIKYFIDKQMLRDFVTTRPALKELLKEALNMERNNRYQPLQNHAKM


Key:
[1] = target: T1, recombinant human ORF1p (LINE-1 open …); test: Simoa sandwich calibration curves, panels titled capture/detector; AEB against recombinant ORF1p (axis 0.001-1000 pg/mL, log-log); dotted line = limit of detection
[2] = target: T1, recombinant human ORF1p (LINE-1 open …); test: screen of cloned llama nanobody candidates for binding to ORF1p
[3] = target: T1, recombinant human ORF1p (LINE-1 open …); test: Simoa sandwich, recombinant ORF1p at 40 pg/mL in diluent buffer, signal/background heat map; capture on the x axis, detector on the y axis
Description: ORF1p Simoa assays. Simoa assays were performed on an HD-X Analyzer (Quanterix Corp.), with all assay reagents and consumables loaded onto the instrument according to the manufacturer's instructions. 250,000 capture beads and 250,000 helper (non-conjugated) beads were used in each Simoa assay. A three-step assay configuration was used for the first- and second-generation assays, consisting of a 15-minute target capture step (incubation of capture beads with 100 μL sample), 5-minute incubation with detector reagent (0.3 μg/mL for both first- and second-generation assays), and 5-minute incubation with streptavidin-β-galactosidase (150 pM for first-generation assay; 300 pM for second-generation assays). The beads were washed with System Wash Buffer 1 (Quanterix Corp.) after each assay step. Upon the final wash cycle, the beads were loaded together with the fluorogenic enzyme substrate resorufin β-D-galactopyranoside into a 216,000-microwell array, which was subsequently sealed with oil. Automated imaging and counting of “on” and “off” wells and calculation of average enzyme per bead (AEB) were performed by the instrument. Calibration curves were fit using a 4PL fit with a 1/y² weighting factor, and the limit of detection (LOD) was determined as three standard deviations above the blank.
Signal/background was also determined for a number of the pairs by Simoa using recombinant ORF1p protein in diluent buffer; the results are shown in FIG. 15. When the rabbit monoclonal antibodies were used as capture and detector, the background was high. The best combinations were the rabbit monoclonal antibodies as capture/Ab6 detector; Nb5-5 capture/rabbit monoclonal antibodies detector; and 4H1 capture/rabbit monoclonal antibody detector pairs.

[4] = target: T1, recombinant human ORF1p (LINE-1 open …); test: ELISA screen of conditioned medium, then modified Simoa with Nb-5 or 4H1 beads and ORF1p
Source text: GenScript's MonoRab™ immunization and B cell cloning platform was used with purified, recombinant human ORF1p trimers. The 50 best-performing clones, determined by ELISA screening of the conditioned cell medium at multiple dilutions, were selected and used in a modified Simoa assay with two different detector beads (Nb-5, which is the C5 nanobody clone described above, or 4H1 (Sigma-Aldrich)). The ten best clones (62H12, 64C6, 33A8, 61A11, 36D12, 34H7, 50E9, 34C5, 55A6, and 42D10) all yielded up to 5-fold higher signal-to-noise than our best existing reagent, Ab6, (FIG. 13A).

| binding result [1] | Binder | further results |
| --- | --- | --- |
| binds | MT1032 (bispecific antibody, biotinylated on the C-terminal cysteine residues when used as detector, also called Nb5-Nb5-7Cys anti-ORF1 Nb dimer 7 (short linker); Nb 5-5-cys (short)) nanobody concatemer: QVQLVESGGDLVQAGGSLRLSCAVSGGTSSNYGMGWFRQAPGKEREFVSSISWSGSRTLYSDSVKGRFTISRDNAKNTVDLQMNSLKPEDTAVYYCTAVREYRDYPQRDNFDYWGQGTQVTVSGGGGSGGGGSGGGGSGGGGSMAQVQLVESGGDLVQAGGSLRLSCAVSGGTSSNYGMGWFRQAPGKEREFVSSISWSGSRTLYSDSVKGRFTISRDNAKNTVDLQMNSLKPEDTAVYYCTAVREYRDYPQRDNFDYWGQGTQVTVSCGSGRCGSGRCGSGRCGSGRC | – |
| – | anti-ORF1 Nanobody 1 (Nb1) (VHH, Llama nanobody) VHH: DVQLVESGGGLVQAGESLRLSCAASGRTLSSLNMAWFRQVPGKERDFVSLISRSGSTDYVHSVRGRFTISRDNAKNTVYLEMNSLKPEDTAVYYCAADDNYNGRYPFRDEYEYWGQGTQVTVSH | binding result [2]: binds |
| binds | MT1037 (bispecific antibody, biotinylated on the C-terminal cysteine residues when used as detector, also called Nb5-Nb9-7Cys anti-ORF1 Nb dimer 12 (long linker v2); 5-9-cys(long2)) nanobody concatemer: QVQLVESGGDLVQAGGSLRLSCAVSGGTSSNYGMGWFRQAPGKEREFVSSISWSGSRTLYSDSVKGRFTISRDNAKNTVDLQMNSLKPEDTAVYYCTAVREYRDYPQRDNFDYWGQGTQVTVSGGGGSGGGGSGGGGSGGGGSDAAARDAAARDAAARGGGGSGGGGSGGGGSGGGGSGSMAQVHLVESGGKLVQAGESLKLSCEVSGRTFSISGAGWFRQAPGKEREFVAAITWTGGYPYYDASVKGRFTISREDPDNTVYLSMNSLKPEDTAVYYCATRRAGDLDFSYAQQGRYDNWGQGTQVTVSCGSGRCGSGRCGSGRCGSGRC | – |
| binds | MT1035 (bispecific antibody, biotinylated on the C-terminal cysteine residues when used as detector, also called Nb5-Nb5-7Cys anti-ORF1 Nb dimer 10 (long linker v2); 5-5-cys(long2)) nanobody concatemer: QVQLVESGGDLVQAGGSLRLSCAVSGGTSSNYGMGWFRQAPGKEREFVSSISWSGSRTLYSDSVKGRFTISRDNAKNTVDLQMNSLKPEDTAVYYCTAVREYRDYPQRDNFDYWGQGTQVTVSGGGGSGGGGSGGGGSGGGGSDAAARDAAARDAAARGGGGSGGGGSGGGGSGGGGSMAQVQLVESGGDLVQAGGSLRLSCAVSGGTSSNYGMGWFRQAPGKEREFVSSISWSGSRTLYSDSVKGRFTISRDNAKNTVDLQMNSLKPEDTAVYYCTAVREYRDYPQRDNFDYWGQGTQVTVSCGSGRCGSGRCGSGRCGSGRC | – |
| – | 62H12 (antibody, V domains shown, Rabbit monoclonal antibody (GenScript MonoRab); also called 62H12-1; 62H2) VH: QSVKESGGRLVTPGTPLTLICTVSGFSLSRYAVGWVRQAPGKGLEWIGYIWSGGYTDYANWAKGRFTISKTSTTVDLKITSPTTEDTATYFCAREGDSDDYIYLNLWGPGTLVTVSS VL: ALVMTQTPSSVSAAVGGTVTINCQASESISSYLAWYQQKSGQPPKLLIYRASTLASGVPSRFKGSGSGTEFTLTIGDLECADAATYYCQQGYTSFNVDKAFGGGTEVVVK | binding result [3]: binds |
| – | 50E9 (antibody, V domains shown, Rabbit monoclonal antibody; also called 50E9-2) VH: QSVEESGGRLVTPGTPLTLTCTVSGFSLSRHYMSWVRQAPGKGLEWIGIIYDDDNRDHASWAKGRFTISRTSTTVDLKITSPTTEDTATYFCARVYASYGYALNLWGQGTLVIVSS VL: ALVMTQTPPSVSAAVGGTVTINCQASESITNWLAWYQQKPGQPPKLLIYDASKLASGVSSRFSGSGSGTQFTLTISRVQCDDAATYYCQQGYTWNNIDNVFGGGTEVVVK | binding result [4]: binds |
| binds | MT1036 (other, biotinylated on the C-terminal cysteine residues when used as detector, also called Nb2-Nb9-7Cys anti-ORF1 Nb dimer 11 (long linker v2); 2-9-cys(long2)) nanobody concatemer: DVQLVESGGGLVQAGGSLRLSCAASGRTDDIYTMGWFRQGPGKEREFVAVISWSITRRSSITHYADSVKGRFTISGENAENTVYLQMNTLKPEDTAVYYCAAKTGYSGSMSSYQDYDSWGQGTQVTVSGGGGSGGGGSGGGGSGGGGSDAAARDAAARDAAARGGGGSGGGGSGGGGSGGGGSGSMAQVHLVESGGKLVQAGESLKLSCEVSGRTFSISGAGWFRQAPGKEREFVAAITWTGGYPYYDASVKGRFTISREDPDNTVYLSMNSLKPEDTAVYYCATRRAGDLDFSYAQQGRYDNWGQGTQVTVSCGSGRCGSGRCGSGRCGSGRC | – |
| binds | MT1038 (other, biotinylated on the C-terminal cysteine residues when used as detector, also called Nb9-Nb9-7Cys anti-ORF1 Nb dimer 13 (long linker v2); 9-9-cys(long2)) nanobody concatemer: QVHLVESGGKLVQAGESLKLSCEVSGRTFSISGAGWFRQAPGKEREFVAAITWTGGYPYYDASVKGRFTISREDPDNTVYLSMNSLKPEDTAVYYCATRRAGDLDFSYAQQGRYDNWGQGTQVTVSGGGGSGGGGSGGGGSGGGGSDAAARDAAARDAAARGGGGSGGGGSGGGGSGGGGSGSMAQVHLVESGGKLVQAGESLKLSCEVSGRTFSISGAGWFRQAPGKEREFVAAITWTGGYPYYDASVKGRFTISREDPDNTVYLSMNSLKPEDTAVYYCATRRAGDLDFSYAQQGRYDNWGQGTQVTVSCGSGRCGSGRCGSGRCGSGRC | – |

— patent US20260176701A1 (BRIGHAM AND WOMEN S HOSPITAL, published 2026)
